# System: Escherichia coli TOP10
# Assay: shrunken log2 fold change of peptide-encoding DNA abundance (4.5 h post-induction vs induction); higher = less antimicrobial activity (less host growth inhibition)
# Details: time post-induction: 4.5 h; library: site-saturation at positions 5, 18, 19, 20
# 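Note: peptides expressed intracellularly from a pBAD plasmid library in pooled LB shake-flask culture, induced with 0.3% L-arabinose, DNA abundance read by NGS, three biological replicates, DESeq2 with apeglm shrinkage.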
row,Sequence,shrunken log2 fold change
1,RRIRERPPRLPRPRPRPQAYPRP,-0.131
2,RRIRERPPRLPRPRPRPQFVPRP,-0.312
3,RRIRERPPRLPRPRPRPQGIPRP,-0.044
4,RRIRERPPRLPRPRPRPQGYPRP,0.0039
5,RRIRERPPRLPRPRPRPQHIPRP,-0.15
6,RRIRERPPRLPRPRPRPQHVPRP,-0.356
7,RRIRERPPRLPRPRPRPQKPPRP,0.0657
8,RRIRERPPRLPRPRPRPQKQPRP,-0.0621
9,RRIRERPPRLPRPRPRPQKWPRP,-0.473
10,RRIRERPPRLPRPRPRPQLDPRP,0.115
11,RRIRERPPRLPRPRPRPQLLPRP,-0.324
12,RRIRERPPRLPRPRPRPQMAPRP,0.00684
13,RRIRERPPRLPRPRPRPQMIPRP,0.132
14,RRIRERPPRLPRPRPRPQNSPRP,-0.505
15,RRIRERPPRLPRPRPRPQQCPRP,-0.0909
16,RRIRERPPRLPRPRPRPQQDPRP,-0.108
17,RRIRERPPRLPRPRPRPQRQPRP,0.0791
18,RRIRERPPRLPRPRPRPQSRPRP,0.00145
19,RRIRERPPRLPRPRPRPQTPPRP,0.0694
20,RRIRERPPRLPRPRPRPQVIPRP,-0.125
21,RRIRERPPRLPRPRPRPQVLPRP,-0.0121
22,RRIRERPPRLPRPRPRPQWLPRP,-0.168

row,Sequence,shrunken log2 fold change
1,RRIRERPPRLPRPRPRPQYAPRP,-0.158
2,RRIRERPPRLPRPRPRPRAHPRP,0.352
3,RRIRERPPRLPRPRPRPRCHPRP,-0.464
4,RRIRERPPRLPRPRPRPRDQPRP,0.424
5,RRIRERPPRLPRPRPRPREIPRP,0.214
6,RRIRERPPRLPRPRPRPRFMPRP,-0.0944
7,RRIRERPPRLPRPRPRPRFVPRP,-0.373
8,RRIRERPPRLPRPRPRPRGPPRP,0.662
9,RRIRERPPRLPRPRPRPRHGPRP,-0.467
10,RRIRERPPRLPRPRPRPRHNPRP,-0.137
11,RRIRERPPRLPRPRPRPRKAPRP,0.444
12,RRIRERPPRLPRPRPRPRKRPRP,0.255
13,RRIRERPPRLPRPRPRPRLQPRP,0.0143
14,RRIRERPPRLPRPRPRPRLYPRP,-0.448
15,RRIRERPPRLPRPRPRPRNHPRP,-0.367
16,RRIRERPPRLPRPRPRPRQNPRP,0.177
17,RRIRERPPRLPRPRPRPRRAPRP,0.566
18,RRIRERPPRLPRPRPRPRRNPRP,-0.0448
19,RRIRERPPRLPRPRPRPRSFPRP,-0.331
20,RRIRERPPRLPRPRPRPRSLPRP,-0.0254
21,RRIRERPPRLPRPRPRPRTQPRP,0.111
22,RRIRERPPRLPRPRPRPRTYPRP,-0.517

row,Sequence,shrunken log2 fold change
1,RRIRERPPRLPRPRPRPRVIPRP,0.0506
2,RRIRERPPRLPRPRPRPRWGPRP,0.239
3,RRIRERPPRLPRPRPRPRWIPRP,1.93
4,RRIRERPPRLPRPRPRPRWLPRP,0.108
5,RRIRERPPRLPRPRPRPRWPPRP,0.486
6,RRIRERPPRLPRPRPRPRYLPRP,-0.452
7,RRIRERPPRLPRPRPRPRYPPRP,0.00273
8,RRIRERPPRLPRPRPRPSADPRP,-0.625
9,RRIRERPPRLPRPRPRPSDGPRP,-0.166
10,RRIRERPPRLPRPRPRPSDRPRP,-0.165
11,RRIRERPPRLPRPRPRPSFWPRP,0.132
12,RRIRERPPRLPRPRPRPSHAPRP,-0.0485
13,RRIRERPPRLPRPRPRPSHIPRP,-0.25
14,RRIRERPPRLPRPRPRPSHKPRP,-0.437
15,RRIRERPPRLPRPRPRPSIMPRP,-1.02
16,RRIRERPPRLPRPRPRPSKMPRP,-0.141
17,RRIRERPPRLPRPRPRPSKQPRP,0.0844
18,RRIRERPPRLPRPRPRPSKSPRP,-0.688
19,RRIRERPPRLPRPRPRPSKWPRP,-0.241
20,RRIRERPPRLPRPRPRPSLWPRP,-0.151
21,RRIRERPPRLPRPRPRPSMEPRP,-0.14
22,RRIRERPPRLPRPRPRPSPSPRP,-0.269

row,Sequence,shrunken log2 fold change
1,RRIRERPPRLPRPRPRPSPVPRP,-0.268
2,RRIRERPPRLPRPRPRPSQKPRP,0.0497
3,RRIRERPPRLPRPRPRPSRYPRP,-0.481
4,RRIRERPPRLPRPRPRPSTRPRP,-0.232
5,RRIRERPPRLPRPRPRPSWYPRP,-1
6,RRIRERPPRLPRPRPRPSYWPRP,-0.266
7,RRIRERPPRLPRPRPRPSYYPRP,-0.126
8,RRIRERPPRLPRPRPRPTAGPRP,0.161
9,RRIRERPPRLPRPRPRPTAVPRP,-0.113
10,RRIRERPPRLPRPRPRPTCKPRP,-0.0222
11,RRIRERPPRLPRPRPRPTCNPRP,-0.315
12,RRIRERPPRLPRPRPRPTDWPRP,-0.145
13,RRIRERPPRLPRPRPRPTFIPRP,-0.291
14,RRIRERPPRLPRPRPRPTHDPRP,-0.141
15,RRIRERPPRLPRPRPRPTIAPRP,-0.25
16,RRIRERPPRLPRPRPRPTKKPRP,0.0853
17,RRIRERPPRLPRPRPRPTKQPRP,-0.275
18,RRIRERPPRLPRPRPRPTMSPRP,-0.217
19,RRIRERPPRLPRPRPRPTMVPRP,0.0432
20,RRIRERPPRLPRPRPRPTPGPRP,0.337
21,RRIRERPPRLPRPRPRPTPSPRP,0.14
22,RRIRERPPRLPRPRPRPTRLPRP,0.576

row,Sequence,shrunken log2 fold change
1,RRIRERPPRLPRPRPRPTSAPRP,0.153
2,RRIRERPPRLPRPRPRPTSEPRP,0.0668
3,RRIRERPPRLPRPRPRPTSNPRP,-0.504
4,RRIRERPPRLPRPRPRPTVRPRP,-0.00266
5,RRIRERPPRLPRPRPRPTYTPRP,-0.756
6,RRIRERPPRLPRPRPRPVCHPRP,-0.309
7,RRIRERPPRLPRPRPRPVCMPRP,-0.164
8,RRIRERPPRLPRPRPRPVCYPRP,-0.266
9,RRIRERPPRLPRPRPRPVFCPRP,-0.0447
10,RRIRERPPRLPRPRPRPVFLPRP,-0.474
11,RRIRERPPRLPRPRPRPVFQPRP,-0.0545
12,RRIRERPPRLPRPRPRPVHGPRP,-0.152
13,RRIRERPPRLPRPRPRPVHSPRP,-0.0947
14,RRIRERPPRLPRPRPRPVIIPRP,-0.634
15,RRIRERPPRLPRPRPRPVITPRP,-0.145
16,RRIRERPPRLPRPRPRPVIWPRP,0.254
17,RRIRERPPRLPRPRPRPVKDPRP,-0.189
18,RRIRERPPRLPRPRPRPVKLPRP,-0.0426
19,RRIRERPPRLPRPRPRPVLGPRP,-0.101
20,RRIRERPPRLPRPRPRPVLMPRP,0.0559
21,RRIRERPPRLPRPRPRPVMWPRP,0.0878

# Reference: the supplement of paper PMC9112550, “Optimization of the antimicrobial peptide Bac7 by deep mutational scanning” (BMC Biology, 2022)
